The target in this assay is hA3G-HA (human, UniProt Q9HC16 1-384). Kind of assay: co-IP.

B1: hA3G W127A-EYFP (natural protein, human, UniProt Q9HC16 1-384, looked up)
chain: MKPHFRNTVERMYRDTFSYNFYNRPILSRRNTVWLCYEVKTKGPSRPPLDAKIFRGQVYSELKYHPEMRFFHWFSKWRKLHRDQEYEVTWYISWSPCTKCTRDMATFLAEDPKVTLTIFVARLYYFADPDYQEALRSLCQKRDGPRATMKIMNYDEFQHCWSKFVYSQRELFEPWNNLPKYYILLHIMLGEILRHSMDPPTFTFNFNNEPWVRGRHETYLCYEVERMHNDTWVLLNQRRGFLCNQAPHKHGFLEGRHAELCFLDVIPFWKLDLDQDYRVTCFTSWSPCFSCAQEMAKFISKNKHVSLCIFTARIYDDQGRCQEGLRTLAEAGAKISIMTYSEFKHCWDTFVDHQGCPFQPWDGLDEHSQDLSGRLRAILQNQEN
B1: the “percent inhibition of binding to wild type hA3G (co-IP, band quantification)” value was ~80%.

B2: hA3G Y124A-EYFP (natural protein, human, UniProt Q9HC16 1-384, looked up)
chain: MKPHFRNTVERMYRDTFSYNFYNRPILSRRNTVWLCYEVKTKGPSRPPLDAKIFRGQVYSELKYHPEMRFFHWFSKWRKLHRDQEYEVTWYISWSPCTKCTRDMATFLAEDPKVTLTIFVARLAYFWDPDYQEALRSLCQKRDGPRATMKIMNYDEFQHCWSKFVYSQRELFEPWNNLPKYYILLHIMLGEILRHSMDPPTFTFNFNNEPWVRGRHETYLCYEVERMHNDTWVLLNQRRGFLCNQAPHKHGFLEGRHAELCFLDVIPFWKLDLDQDYRVTCFTSWSPCFSCAQEMAKFISKNKHVSLCIFTARIYDDQGRCQEGLRTLAEAGAKISIMTYSEFKHCWDTFVDHQGCPFQPWDGLDEHSQDLSGRLRAILQNQEN
Take B2: the “percent inhibition of binding to wild type hA3G (co-IP, band quantification)” value was < 50%.
